Measurements taken from paper PMC4226571, “The E6AP Binding Pocket of the HPV16 E6 Oncoprotein Provides a Docking Site for a Small Inhibitory Peptide Unrelated to E6AP, Indicating Druggability of E6” (PLoS ONE, 2014).
Entries after “also recorded” stand apart in the source; their conditions may differ.

T1: pep11** fused to the GAL4 DNA binding domain
T1 construct: also called pep11**-GAL4-BD
T1 chain: KEKEEYNSNCSCIACIGLI

T2: E6APpep fused to the GAL4 DNA binding domain (human)
T2 construct: The functional row used hrGFP-E6APpep; also called E6APpep-GAL4-BD
T2 chain: IPESSELTLQELLGEERR

T3: wildtype HPV16 E6 fused to the VP16 transcriptional activation domain, P03126
T3 chain: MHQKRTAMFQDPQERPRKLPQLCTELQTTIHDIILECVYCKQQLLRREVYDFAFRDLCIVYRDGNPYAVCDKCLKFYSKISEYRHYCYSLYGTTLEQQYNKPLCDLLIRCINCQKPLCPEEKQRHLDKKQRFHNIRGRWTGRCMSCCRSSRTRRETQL

B1: wildtype HPV16 E6 fused to the VP16 transcriptional activation domain (natural protein)
chain: MHQKRTAMFQDPQERPRKLPQLCTELQTTIHDIILECVYCKQQLLRREVYDFAFRDLCIVYRDGNPYAVCDKCLKFYSKISEYRHYCYSLYGTTLEQQYNKPLCDLLIRCINCQKPLCPEEKQRHLDKKQRFHNIRGRWTGRCMSCCRSSRTRRETQL
notes: source: HeLa, transfected (vector pACT), mammalian two-hybrid fusion

Key:
wt HPV16 E6 = assay: Mammalian two-hybrid assay, wt HPV16 E6; assay type: cell-based; conditions: HeLa; peptide-GAL4-BD + wt HPV16 E6-VP16-AD; relative to pACT control = 1.0; three experiments in duplicate
Excerpt: Results were obtained from three individual experiments, each performed in duplicates. Standard deviations are indicated. Asterisks above horizontal lines indicate statistically significant differences from pACT-transfected cells, with p-values of ≤0.001 (***). […] The horizontal line indicates 1.5-fold inhibition. Individual amino acid exchanges are indicated below each column. Error bars indicate standard deviation values. (D) Statistical analysis of the differential binding behaviour of HPV16 E6 mutants 16E6R55A and 16E6Y70A. […] Asterisks above the horizontal lines indicate statistically significant reductions of luciferase activities, with p-values of ≤0.01 (**) or ≤0.001 (***). Error bars indicate standard deviation values.
HeLa (HPV18-positive) and MRI-H-186 (HPV16-positive) cervical carcinoma cells, and H1299 lung cancer cells were grown in DMEM (pH 7.2), supplemented with 10% fetal bovine serum (Gibco Life Technologies, Carlsbad, CA, USA), 2 mM L-glutamine, 100 U/ml penicillin and 100 µg/ml streptomycin (Sigma-Aldrich, Saint Lois, MO). Plasmids were transfected by calcium phosphate co-precipitation as described. […] E6 constructs used in Figure 7C contain an additional flag-tag between E6 and the VP16-AD. Mutant derivatives of HPV16, HPV18 and HPV31 E6, as specified in the text, were generated by site directed mutagenesis and verified by DNA sequencing. […]

HPV16 E6 = conditions: ref [17]; cited from earlier work
Excerpt: In previous work, we therefore followed an alternative strategy to screen for E6 inhibitors. […] In order to identify possible structural determinants for this discrepancy, we compared the amino acid sequences of the contact region in HPV16 E6 with the corresponding domain of HPV18 E6.

[1] = molecular target: pep11** fused to the GAL4 DNA binding domain; assay: mammalian two-hybrid; conditions: HeLa cells; read off a plot
[2] = molecular target: E6APpep fused to the GAL4 DNA binding domain; assay: mammalian two-hybrid; conditions: HeLa cells; read off a plot
[3] = molecular target: pep11** fused to the GAL4 DNA binding domain; assay: mammalian two-hybrid; conditions: HeLa cells; read off a plot; remark: listed apart in the source
[4] = molecular target: E6APpep fused to the GAL4 DNA binding domain; assay: mammalian two-hybrid; conditions: HeLa cells; read off a plot; remark: listed apart in the source
[5] = molecular target: T1, pep11** fused to the GAL4 DNA binding …; assay: two-hybrid; conditions: partners not purified
[6] = molecular target: T2, E6APpep fused to the GAL4 DNA binding …; assay: two-hybrid; mammalian two-hybrid (CheckMate) in HeLa cells; peptides fused to GAL4-BD (pBIND), E6 proteins fused to VP16-AD (pACT); luciferase reporter pG5luc, normalized for pCMV-Gal; conditions: partners not purified
[7] = molecular target: T3, wildtype HPV16 E6 fused to the VP16 …; assay: mammalian two-hybrid; conditions: chain shown with the change; HeLa cells; parent: est. 19; read off a plot

Molecule | percent of parent [1] [%] | percent of parent [2] [%] | further results
KEKEEYNSNSSSIASIGLI [pep11**m] |  |  | increase of luciferase activity (intracellular E6/peptide binding) (wt HPV16 E6): did not stimulate luciferase activities; also recorded: does not bind to HPV16 E6; binding to HPV16 E6 (in words) (HPV16 E6): defective for E6 binding
wildtype HPV16 E6 fused to the VP16 transcriptional activation domain (from UniProt P03126) D120A | 100 | 120 | 
wildtype HPV16 E6 fused to the VP16 transcriptional activation domain (from UniProt P03126) R39A | 89 | 78 | 
wildtype HPV16 E6 fused to the VP16 transcriptional activation domain (from UniProt P03126) H24Q | 74 | 87 | 
wildtype HPV16 E6 fused to the VP16 transcriptional activation domain (from UniProt P03126) L119E | 100 | 88 | 
wildtype HPV16 E6 fused to the VP16 transcriptional activation domain (from UniProt P03126) D120K | 91 | 100 | 
wildtype HPV16 E6 fused to the VP16 transcriptional activation domain (from UniProt P03126) R48A | 110 | 98 | 
wildtype HPV16 E6 fused to the VP16 transcriptional activation domain (from UniProt P03126) D64A | 60 | 64 | 
wildtype HPV16 E6 fused to the VP16 transcriptional activation domain (from UniProt P03126) Y32A | 7 | 53 | 
wildtype HPV16 E6 fused to the VP16 transcriptional activation domain (from UniProt P03126) R55A | 130 | 64 | percent of parent [3]: 130%; percent of parent [4]: 64%
wildtype HPV16 E6 fused to the VP16 transcriptional activation domain (from UniProt P03126) I128E | 10 | 48 | 
wildtype HPV16 E6 fused to the VP16 transcriptional activation domain (from UniProt P03126) H126A | 110 | 80 | 
wildtype HPV16 E6 fused to the VP16 transcriptional activation domain (from UniProt P03126) T133A | 130 | 150 | 
wildtype HPV16 E6 fused to the VP16 transcriptional activation domain (from UniProt P03126) L38E | 140 | 170 | 
wildtype HPV16 E6 fused to the VP16 transcriptional activation domain (from UniProt P03126) R131E | 49 | 41 | 
wildtype HPV16 E6 fused to the VP16 transcriptional activation domain (from UniProt P03126) H126E | 98 | 63 | 
wildtype HPV16 E6 fused to the VP16 transcriptional activation domain (from UniProt P03126) V53E | 7 | 45 | 
wildtype HPV16 E6 fused to the VP16 transcriptional activation domain (from UniProt P03126) Y70A | 57 | 99 | percent of parent [3]: 57%; percent of parent [4]: 99%
wildtype HPV16 E6 fused to the VP16 transcriptional activation domain (from UniProt P03126) R102E | 10 | 43 | 
wildtype HPV16 E6 fused to the VP16 transcriptional activation domain (from UniProt P03126) D64H | 57 | 64 | 
wildtype HPV16 E6 fused to the VP16 transcriptional activation domain (from UniProt P03126) L100A | 130 | 130 | 
wildtype HPV16 E6 fused to the VP16 transcriptional activation domain (from UniProt P03126) Q35A | 100 | 110 | 
B1 |  |  | fold increase of luciferase activity over control-transfected cells [5]: ~19 fold; fold increase of luciferase activity over control-transfected cells [6]: ~3 fold
KEKEEYNSNSSSIASIGLI [pep11** fused to the GAL4 DNA binding domain pep11**m] |  |  | response [7]: 1 RLA
